According to patent US9493781B2, “Synthetic brassica-derived chloroplast transit peptides” (DOW AGROSCIENCES LLC, priority 2012, dated 2016):

Key:
[1] = tested on: chloroplasts of maize protoplasts; experiment: Maize protoplast transient assay: microscopy of TraP8-YFP; type: cell-based, Zea mays; details: B104 maize protoplasts, 12 hours after transfection
From the text: The Trap8 chimeric chloroplast transit peptide-encoding polynucleotide sequence (SEQ ID NO:5) and the linker-encoding polynucleotide sequence (SEQ ID NO:7) were cloned upstream of the yellow fluorescent protein gene and incorporated into construct pDAB106597 (FIG. 8) for testing via the maize protoplast transient in planta assay. The resulting constructs contained a single plant transcription unit (PTU). The PTU was comprised of the Zea mays Ubiquitin 1 promoter (ZmUbi1 promoter; Christensen, A., Sharrock R., and Quail P., (1992) Maize polyubiquitin genes: structure, thermal perturbation of expression and transcript splicing, and promoter activity following transfer to protoplasts by electroporation, Plant Molecular Biology, 18:675-689), TraP-yellow fluorescent protein fusion gene (TraP8-YFP; US Patent App. 2007/0298412), and Zea mays Peroxidase 5 3′ untranslated region (ZmPer5 3′UTR; U.S. Pat. No. 6,384,207). The constructs were confirmed via restriction enzyme digestion and sequencing.
Seed of Zea mays var. […]
Transfection of 100 to 500 μl of protoplasts (1−5×10^5) was completed by adding the protoplasts to a 2 ml microfuge tube containing about 40 μg of plasmid DNA (pDAB106597), at room temperature. […] Fluorescence of YFP was viewed by microscopy after 12 hours of incubation. […]

[2] = tested on: tobacco (cv. Petit Havana); experiment: Postemergence glyphosate tolerance of dgt-28 transformed T1 and T2 tobacco; type: in vivo; details: 14 DAT, 2240 g ae/ha glyphosate (DURANGO DMA)
From the text: Postemergence herbicide tolerance in dgt-28 transformed T1 tobacco. T1 resistant plants from each event used in the progeny testing were given unique identifiers and sampled for zygosity analyses of the dgt-28 gene. Zygosity data were used to assign 2 hemizygous and 2 homozygous replicates to each rate of glyphosate applied allowing for a total of 4 replicates per treatment. These plants were compared against wildtype Petite havana tobacco. All plants were sprayed with a track sprayer set at 187 L/ha. The plants were sprayed from a range of 560-4480 g ae/ha DURANGO DMA™. All applications were formulated in water with the addition of 2% w/v ammonium sulfate (AMS). Plants were evaluated at 7 and 14 days after treatment. Plants were assigned an injury rating with respect to overall visual stunting, chlorosis, and necrosis. The T1 generation is segregating, so some variable response is expected due to difference in zygosity.
Rates of DURANGO DMA™ ranging from 420-3360 g ae/ha glyphosate were applied to 2-3 leaf tobacco as previously described.

YFP protein = experiment: Western blot of infiltrated tobacco leaves (YFP expression, transit peptide processing); set-up: species or system Nicotiana benthamiana; details: infiltrated tobacco leaf tissue
Experimental: Samples of the infiltrated tobacco plants were assayed via Western blotting. Leaf punches were collected and subjected to bead-milling. About 100-200 mg of leaf material was mixed with 2 BBs (steel balls) (Daisy; Rogers, Ark.) and […] of PBST for 3 minutes in a Kleco™ bead mill. The samples were then spun down in a centrifuge at 14,000×g at 4° C. The supernatant was removed and either analyzed directly via Western blot or immunoprecipitated. The immunoprecipitations were performed using the Pierce Direct IP Kit™ (Thermo Scientific; Rockford, Ill.) following the manufacturer's protocol. Approximately, 50 μg of anti-YFP was bound to the resin. The samples were incubated with the resin overnight at 4° C. Next, the samples were washed and eluted the following morning and prepped for analysis by combining equal volumes of 2×8M Urea sample buffer and then boiling the samples for 5 minutes. The boiled samples were run on a 4-12% SDS-Bis Tris gel in MOPS buffer for 40 minutes. The gel was then blotted using the Invitrogen iBlot™ (Life Technologies; Carlsbad, Calif.) following the manufacturer's protocol. The blotted membrane was blocked for 10 minutes using 5% non-fat dry milk in PBS-Tween solution. The membrane was probed with the primary antibody (monoclonal anti-GFP in rabbit) used at a 1:1000 dilution in the 5% non-fat dry milk in PBS-Tween solution for 1 hour. […]

B1: TraP8: chimeric chloroplast transit peptide SEQ ID NO:3; N-terminus from Brassica napus EPSPS CTP, C-terminus from Brassica rapa (protein)
chain: MAQSSRICHGVQNPCVIISNLSKSNQNKSPFSVSLKTHQQQRRAYQISSWGLKKSNNGSVIRPVK
modifications: TraP8 chimeric chloroplast transit peptide
notes: N-terminus from Brassica napus EPSPS CTP, C-terminus from Brassica rapa
[1]
  Localization of YFP fluorescence in maize protoplasts: accumulated within the chloroplasts
[2]
  % Injury Ave: 9.3%
YFP protein
  Processing (cleavage) of transit peptide from YFP by Western blot: processed
